{"source": "paper PMC3971453", "about": "“Crystallographic structure of the turbine C-ring from spinach chloroplast F-ATP synthase” (Bioscience Reports, 2014)", "proteins": {"B1": {"name": "subunit c of the CF1FO-ATP synthase from spinach chloroplasts (natural protein, spinach (Spinacea oleracea L.), UniProt P69447 1-81, looked up)", "chain": "MNPLIAAASVIAAGLAVGLASIGPGVGQGTAAGQAVEGIARQPEAEGKIRGTLLLSLAFMEALTIYGLVVALALLFANPFV", "notes": "ATP synthase subunit c (subunit III), chloroplastic, Spinacia oleracea; native protein from the tissue; the last four C-terminal amino acids are not visible in the electron density map; Native, untagged protein; Homo-oligomeric ring of 14 copies; also called subunit III; c-ring; source: the c-ring alone was left in the crystal; copies: 14"}}, "biological_target": "the molecule itself", "experiment": "crystal structure; crystals grown from the entire CF1FO-ATP synthase (18 mg/ml), vapour diffusion, 33% (v/v) PEG 550 MME, 0.05 M sodium acetate pH 4.3; only the c-ring in the crystal; molecular replacement with PDB 2W5J; refined to 6.0 Å"}
{"protein": "B1", "values": [{"measurement": "stoichiometry N", "value": 14}]}
